One block for each substance: values may come before it.
Key:
Nfluc416-WASP (human) = Nfluc416-WASP (human) (UniProt P42768); experiment: split reporter (BiFC, NanoBiT); bimolecular luminescence complementation (split firefly luciferase) in living HEK 293 cells, 24 h after transient cotransfection of the pair (50 ng/well) with pRL-tk; D-luciferin 150 ug/ml; IVIS CCD camera; ratio FL at 600 nm to RL at 500 nm; wild-type pairs also with co-expressed GEF or GAP catalytic domains
Nfluc416-PAK = Nfluc416-PAK (UniProt Q13153); experiment: split-luciferase complementation (BiLC) optical imaging in transiently cotransfected 293 cells; conditions: parent: est. 4.6; read off a plot
Nfluc416-PKN (human) = Nfluc416-PKN (human) (UniProt Q16512); experiment: split reporter (BiFC, NanoBiT); bimolecular luminescence complementation (split firefly luciferase) in living HEK 293 cells, 24 h after transient cotransfection of the pair (50 ng/well) with pRL-tk; D-luciferin 150 ug/ml; IVIS CCD camera; ratio FL at 600 nm to RL at 500 nm; wild-type pairs also with co-expressed GEF or GAP catalytic domains
Nfluc416-PKN (human), sequence (Q16512 13-112): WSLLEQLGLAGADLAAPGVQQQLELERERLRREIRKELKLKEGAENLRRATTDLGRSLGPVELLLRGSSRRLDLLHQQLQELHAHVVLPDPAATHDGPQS

Nfluc416-WASP (human), sequence (P42768 220-288): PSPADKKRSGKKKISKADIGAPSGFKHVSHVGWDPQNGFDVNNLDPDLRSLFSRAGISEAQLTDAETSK

- reconstituted luminescence (FL/RL), fold over CDC42 F37A (Nfluc416-WASP (human)): 12.7 fold
- reconstituted luminescence (FL/RL), fold over CDC42 T17N (Nfluc416-WASP (human)): 6.8 fold
- reconstituted luminescence (FL/RL), fold over CDC42 WT (Nfluc416-WASP (human)): 2.9 fold
Substance: CDC42-Cfluc398 (CDC42 G12V) (from UniProt P60953 1-176; P60953 171-191) (natural protein)

- response (Nfluc416-PAK): 1.4 FL/RL
Substance: Cfluc398-RacI(WT) (from UniProt P63000) F37A

- response (Nfluc416-PAK): 2.1 FL/RL
Substance: Cfluc398-RacI(WT) (from UniProt P63000) T17N

- luminescence signal, fold of the active mutant over the wild type (Nfluc416-PKN (human)): 5.15 fold
Substance: Cfluc398-RhoA(G14V) (from UniProt P61586 1-193) (natural protein)

From paper PMC3627919
